From patent US11827690B2, “ApoC-II mimetic peptides” (THE UNITED STATES OF AMERICA, as represented by the …, priority 2017, dated 2023)
Non-standard residues stand in square brackets, D forms with d. No end group written: not given here. *: point of attachment. Stearoyl = CCCCCCCCCCCCCCCCCC(=O)*; Palmitoyl = CCCCCCCCCCCCCCCC(=O)*; Nle = CCCC[C@H](N)C(=O)O; Aib = CC(C)(N)C(=O)O

Legend:
bovine LPL = biological target: T1, bovine LPL (Bos taurus, UniProt P11151); test: in vitro LPL assay using apoC-II deficient patient sera as substrate; format: biochemical; conditions: for LPL activation / TG hydrolysis: FIG. 52; for effect of lipidation on ability of C2thirdhelix to promote TG hydrolysis: FIG. 9; for promoting TG hydrolysis in the presence of LPL: FIG. 6
T1 sequence (P11151 29-478): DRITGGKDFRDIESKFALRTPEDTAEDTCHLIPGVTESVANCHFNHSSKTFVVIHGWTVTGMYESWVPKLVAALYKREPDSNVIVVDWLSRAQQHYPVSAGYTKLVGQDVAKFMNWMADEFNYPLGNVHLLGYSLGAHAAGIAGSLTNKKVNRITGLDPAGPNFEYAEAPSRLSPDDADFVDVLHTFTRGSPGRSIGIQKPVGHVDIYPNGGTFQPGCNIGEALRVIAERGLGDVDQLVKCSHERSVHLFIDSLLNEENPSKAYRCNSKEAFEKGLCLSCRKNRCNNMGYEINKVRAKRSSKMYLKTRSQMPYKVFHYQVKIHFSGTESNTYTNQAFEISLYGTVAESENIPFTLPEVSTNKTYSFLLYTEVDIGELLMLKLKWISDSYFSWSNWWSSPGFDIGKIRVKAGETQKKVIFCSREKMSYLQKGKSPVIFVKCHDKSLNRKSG
Description: Preparation of LPL: frozen stock of 10 μL of 0.5 mg/mL bovine LPL was used and diluted 1:100 (10 μL+990 μL of PBS).
Preparation of 20% Intralipid: 2000 mg/dL TG Intralipid was used to prepare 3 mg/dL TG Intralipid by diluting 1.5 μL of the stock with 998.5 μL PBS, or by diluting the stock 1:10 first and then mixing 15 μL of the diluted stock with 985 μL PBS. When apoC-II deficient human serum was used as a substrate, a frozen 10 μL aliquot of 1711 mg/dL (TG) was diluted by adding 990 μL PBS (1:100 dilution).
Preparation of free fatty acid (NEFA) assay: NEFA reagents were purchased from Wako Diagnostics, Wako Life Sciences, Inc. Reagent A was prepared by mixing Coloring Reagent A with Solvent A (225 μL per well). Reagent B was prepared by mixing Coloring Reagent B with Solvent B (75 μL per well). 5 nmoL oleic acid standard was prepared by diluting 20 μL of 1 mM oleic acid stock (WAKO NEFA standard solution) with 180 μL of 0.2% BSA.
LPL activity assay: 10 μL of Intralipid, human plasma sample, or mouse plasma sample was added in each well using repeater pipette. 10 μL (or 15 μL in the wells with no LPL control) of PBS and 10 μL of 1% BSA was added in each well using repeater pipette. 10 μL of peptides were added to corresponding wells in vertical triplicates (lowest concentration is on a left, highest is on the right). The plate was spun down at 1000 RPM for 10 seconds to mix and to remove the solutions from the wall of each well. The plate was put on ice and 5 μL of LPL was added using repeater pipette. The plate was spun down again at 1000 RPM for 10 seconds. The plate was covered and put back on ice for an incubation of 30 min. The plate was then moved to 37° C. and incubated for 1 hour.
Free fatty acids (NEFA) assay: 45 μL of 5 nmoL standard and 0 nmoL control (0.2% BSA) were added to corresponding wells. 225 μL of reagent A was added in each well using the reagent tray and 12-channel pipette. The plate was incubated for 10 min before 75 μL of reagent B was added to each well using the reagent tray and 12-channel pipette. The plate was not covered due to the high volume. The absorbance at 550 nm and 660 nm was measured.

apoC-II knockout mice = test: plasma lipids of apoC-II knockout mice after peptide injection; format: in vivo
Description: C57Bl/6 mice (wild-type), apoC-II knockout (apoC-II KO) mice, and apoC-III transgenic mice were used for in vivo study. The C57Bl/6 mice (wild-type) were purchased from Taconic Biosciences Inc. The apoC-II KO mice were created as described in Sakurai et al., J Pharmacol Exp Ther 356:341-353, 2016. The apoC-III transgenic mice were generated by overexpressing human apoC-III in C57Bl/6 mice. See Qu et al., J. Lipid Res. 48:1476-1487, 2007.
Mice were fasted overnight (approximately 12 hours) before the study and 6 hours during the study, the next day. The apoC-II mimetic peptides were synthetically produced and free of biological contamination (not available as FDA approved compounds/treatment). […] W.) administered either subcutaneous injection (S.Q. or S.C.), intraperitoneal injection (I.P.) or intravenous injection (I.V.) (in a sterile, pharmaceutical grade PBS solution at a volume ≤200 μL) as described in Sakurai et al., J Pharmacol Exp Ther 356:341-353, 2016.

[1] = concentrations from 100 pM to 10 μM, FIG. 12

DYLKEVAibEKLRDLYEKAibFPAVSTYTGIFTDQVLSVLKGEE (DYLKEV[Aib]EKLRDLYEK[Aib]FPAVSTYTGIFTDQVLSVLKGEE) [Delta6T18F-PV-AIB7,17]
LPL activation / TG hydrolysis (bovine LPL): activated LPL in vitro

DYLKAVFEKLRDLYSKFFPAMSTYTGIFTDQVLSVLKGEE [Delta4b T18F]
TG hydrolysis (bovine LPL; [1]): promoted TG hydrolysis in a dose-dependent manner

DYLKAVFEKKC18RDLYSKFTPAMSTYTGIFTDQVLSVLKGEE (DYLKAVFEKK(Stearoyl)RDLYSKFTPAMSTYTGIFTDQVLSVLKGEE) [Delta4b-2]
TG hydrolysis (bovine LPL; [1]): promoted TG hydrolysis in a dose-dependent manner

DYLKAVKC18EKLRDLYSKFTPAMSTYTGIFTDQVLSVLKGEE (DYLKAVK(Stearoyl)EKLRDLYSKFTPAMSTYTGIFTDQVLSVLKGEE) [Delta4b-1]
TG hydrolysis (bovine LPL; [1]): promoted TG hydrolysis in a dose-dependent manner

DYLKEVFEKLRDLYEKFFPAVSTYTGIFTDQVLSVLKGEE [Delta6T18F-PV]
LPL activation / TG hydrolysis (bovine LPL): activated LPL in vitro | time of maximum reduction of plasma TG (apoC-II knockout mice; 0.1 μmol/kg intraperitoneally, after the peptide injection): about 6 hours | plasma TG (apoC-II knockout mice; 0.1 μmol/kg of body weight intraperitoneally, FIG. 53): rapid reduction of plasma TG

C18AMSTYTGIFTDQVLSVLKGEE (Stearoyl-AMSTYTGIFTDQVLSVLKGEE) [C2thirdhelixStearylpos1]
effect of lipidation on ability of C2thirdhelix to promote TG hydrolysis (bovine LPL): lipidation enhanced the ability of C2thirdhelix to promote TG hydrolysis

DKVKEFLSEYWEKAKEFAPAVSTYTGIFTDQVLSVLKGEE [Delta13-31-PV]
LPL activation / TG hydrolysis (bovine LPL): promoted TG hydrolysis in vitro in a dose-dependent manner

C18DYLKAVFEKLRDLYSKFTAAnLSTYTGIFTDQVLSVLKGEE (Stearoyl-DYLKAVFEKLRDLYSKFTAA[Nle]STYTGIFTDQVLSVLKGEE) [mono-acyl-Delta4]
promoting TG hydrolysis in the presence of LPL (bovine LPL): capable of promoting TG hydrolysis in the presence of LPL

DYLKAVFEKLRDLYSKFTAAKC16STYTGIFTDQVLSVLKGEE (DYLKAVFEKLRDLYSKFTAAK(Palmitoyl)STYTGIFTDQVLSVLKGEE) [Delta4c]
TG hydrolysis (bovine LPL; peptide concentrations from 10 pM to 100 μM, FIG. 13): promoted TG hydrolysis

AKC18STYTGIFTDQVLSVLKGEE (AK(Stearoyl)STYTGIFTDQVLSVLKGEE) [C2thirdhelixStearylpos2]
effect of lipidation on ability of C2thirdhelix to promote TG hydrolysis (bovine LPL): lipidation enhanced the ability of C2thirdhelix to promote TG hydrolysis

AMSTYTGIFTDQVLSVLKC18GEE (AMSTYTGIFTDQVLSVLK(Stearoyl)GEE) [C2thirdhelixStearylpos17]
effect of lipidation on ability of C2thirdhelix to promote TG hydrolysis (bovine LPL): lipidation enhanced the ability of C2thirdhelix to promote TG hydrolysis

C18DYLKAVFEKKC18RDLYSKFTAAnLSTYTGIFTDQVLSVLKGEE (Stearoyl-DYLKAVFEKK(Stearoyl)RDLYSKFTAA[Nle]STYTGIFTDQVLSVLKGEE) [bi-acyl-Delta4]
promoting TG hydrolysis in the presence of LPL (bovine LPL): capable of promoting TG hydrolysis in the presence of LPL
